Positions count from the first letter of the chain named.
B1: ch-19E11 (antibody, human IgG1, kappa, V domains shown)
VH: EVQLQQSGPELEKPGASVKISCKASGFSFTGYNMNWVKQSNGKSLEWIGNIDPYYGGTTYNQKFKGKATLTVDISSSTAHMELKSLTSEDSAVYFCARSVTTVGYPMDYWGQGTSVTVSS
VL: DIVMTQSPSSLAMSVGQKVTMNCKSSQSLLNSYNHKNCLAWYQQKPGQSPKLLISFASARESGVPDRFIGSGSGTDFTLTISSVQAEDLADYFCHQHYTSPLTFGAGTKLELKR
notes: also called 嵌合抗体ch-19E11
B2: 19E11 (antibody, V domains shown)
VH: B1 VH
VL: DIVMTQSPSSLAMSVGQKVTMNCKSSQSLLNSYNHKNCLAWYQQKPGQSPKLLISFASARESGVPDRFIGSGSGTDFTLTISSVQAEDLADYFCHQHYTSPLTFGAGTKLELK
notes: Mouse monoclonal antibody from a hybridoma, purified on Protein G; also called 鼠源抗体19E11; 杂交瘤抗体19E11
B3: 51E12 (antibody, V domains shown)
VH: QVQLQQSGPELVKPGASVKISCKVSGNAFSLSWMNWVKQRPGQGLEWIGRIYPGDGDSNYNGKFKGKATLTADKSSSTVFMQLSSLTSVDSAVYFCANYYGSSSWFVYWGQGTLVTVSA
VL: DVVMTQTPLSLPVSLGDQASISCRSSQSLVHSYGNTYLHWYLQKPGQSPKLLIYKVSNRFSGVPDRFSGSGSGTDFTLKISRVETEDLGVYFCSQSTHFPWTFGGGTKLEIK
B4: 15D10 (antibody, V domains shown)
VH: QVQLQQPGAELVKPGASVKMSCKASGYTFTTYWMHWVKQRSGQGLEWIGVIDPSDSYTRYNQKFKDKATLTVDTSSSTAYMHLTSLTSEDSAVYYCTRSGIGNSFIMDYWGQGTSVTVSS
VL: QVVLTQSPAIMPAFPGEKVTISCSASSSVIYMFWYQQKPGSSPKPWIYRTSNLASGVPARFTGSGSGTSYSLTISSMEAEDAATYYCQQYHSYPLTFGVGTKLELK
B5: 56E8 (antibody, V domains shown)
VH: QVQLKESGPGLVAPSQSLSITCTVSGFSLTAYGVHWVRQPPGKGLEWLGGIWAGGSTKSNSALMSSLSISKDNSKSQVFLKMNSLQTDDSAMYYCARALFYGYFDVWGAGTTVTVSS
VL: DIVMTQSQKFMSTSVGDRVSVTCKASQSVDTNVAWYQQRPGQSPEALIFSASYRYSGVPDRFTGSGSGTDFTLTISNVQSEDLAEYFCQQYNVYPYTFGGGTNLEIK
B6: 11C8 (antibody, V domains shown)
VH: B5 VH with K58Q, S66R, N73S, K81R, Y103N
VL: B5 VL with N32S, S76N, V93S
B7: 50A5 (antibody, V domains shown)
VH: B5 VH with S56N, K58Q, N60H, S66R, S68T, N73I, K81R, Y103N
VL: B5 VL with K9R, N32S, V93S
B8: 23F6 (antibody, V domains shown)
VH: QVQLKESGPGLVAPSQSLSITCTVSGFSLTAYGVHWVRQPPGKGLEWLGGIWAGGNTQSHSALMSRVSISKDISKRQVFLKMDRLQTDDSAIYYCARALFYGNFDVWGAGTTVTVSS
VL: B5 VL with K9R, N32S, V93S, I106M, K107R
B9: ch-27A3 (antibody, human IgG1, kappa, V domains shown)
VH: QVQLQQPGAELVRPGASVKLSCKASGYSFTIYWMHWVKQRPGQGLEWIGMSHPSDSESRLNQKFKDKATLTVDKSSSTAYMQLSSPTSEDSAVYYCSRPYYGSSAWFADWGQGTLVTVSA
VL: DIVMTQSPSSLAMSVGQKVTMSCKSSQSLLNSSNQKNYLAWYQQKPGQSPKLLIYFASTRESGVPDRFIGSGSGTDFTLSISSVQAEDLADYFCQQHYSFPLTFGAGTKLELRR
notes: also called 嵌合抗体ch-27A3
B10: 27A3 (antibody, V domains shown)
VH: B9 VH
VL: DIVMTQSPSSLAMSVGQKVTMSCKSSQSLLNSSNQKNYLAWYQQKPGQSPKLLIYFASTRESGVPDRFIGSGSGTDFTLSISSVQAEDLADYFCQQHYSFPLTFGAGTKLELR
notes: Mouse monoclonal antibody from a hybridoma, purified on Protein G; also called 鼠源抗体27A3; 杂交瘤抗体27A3
B11: 45D1 (antibody, V domains shown)
VH: EMQLVESGGDLVKPGGSLKLSCAVSGFTFSTYDMSWIRQTPDKRLEWVATISSGGSYTYYPDSVKGRFTISRDNAKNTLYLQMSSLQSEDTAIYYCASLNWGFDHWGQGTTLTVSS
VL: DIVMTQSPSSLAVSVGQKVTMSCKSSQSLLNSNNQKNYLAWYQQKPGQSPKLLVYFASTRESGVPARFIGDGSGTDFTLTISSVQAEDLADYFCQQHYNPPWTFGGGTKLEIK
B12: hu-27A3 (antibody, human IgG1, kappa, V domains shown)
VH: QVQLVQSGAEVKKPGASVKVSCKASGYSFTIYWMHWVRQAPGQGLEWIGMSHPSDSESRLNQKFKDRATLTVDKSTSTAYMELSSLRSEDTAVYYCSRPYYGSSAWFADWGQGTLVTVSA
VL: DIVMTQSPDSLAVSLGERATINCKSSQSLLNSSNQKNYLAWYQQKPGQSPKLLIYFASTRESGVPDRFSGSGSGTDFTLTISSLQAEDVAVYYCQQHYSFPLTFGAGTKLELRR
notes: Humanized IgG1/kappa, made in HEK-293E cells; also called 27A3人源化抗体; 人源化后的27A3
B13: hu-19E11 (antibody, human IgG1, kappa, V domains shown)
VH: QVQLVQSGAEVKKPGASVKVSCKASGFSFTGYNMNWVRQAPGQSLEWIGNIDPYYGGTTYNQKFKGRATLTVDISISTAYMELSRLRSDDTAVYFCARSVTTVGYPMDYWGQGTSVTVSS
VL: B12 VL with S33Y, Q35H, Y38C, Y55S, T59A, Y93F, Q95H, S99T, F100S, R113K
notes: Humanized IgG1/kappa, made in HEK-293E cells; also called 19E11人源化抗体; 人源化后的19E11
B14: 8H2 (antibody, V domains shown)
VH: EVNLVESGGGLVKPGGSLKLSCAASGFAFSNYDMSWVRQTPEKRLEWVATISGGGSYTYYPDNVKGRFTISRDNAMNTLYLQMSSLRSEDTALYYCASVNWGFPYWGQGTLVTVSA
VL: DIVMSQSPSSLAVSIGEKVTMSCKSSQSLLYSRNQKNYLAWYQQKPGQSPILLIYWTSTRESGVPDRFTGSGSGTDFTLTISGVKAEDLAVYYCQQYYTSPWTFGGGTRLEIK

What was measured:
人MUC17-Fc蛋白 [1] = target: T1, 人MUC17-Fc蛋白 (human, UniProt Q685J3 4131-4390); assay: ELISA, coated MUC17 antigen, antibody titrated
T1 construct: range 4131-4390; No linker is described; also called MUC17抗原; not shown: C-terminal Fc tag

人MUC17-Fc蛋白 [2] = target: T1, 人MUC17-Fc蛋白; assay: ELISA, coated MUC17 antigen, chimeric antibody titrated
[3] = target: T2, MUC17 on LS174T colorectal cancer cells (human, UniProt Q685J3 26-4493); assay: flow cytometry on LS174T cells, murine antibody titrated; set-up: Top: unit not given here
人MUC17-Fc蛋白 [4] = target: T1, 人MUC17-Fc蛋白; assay: ELISA, MUC17-Fc coated, murine antibody titrated
[5] = target: MUC17 on LS174T colorectal cancer cells (human, UniProt Q685J3 26-4493); assay: flow cytometry on LS174T cells, murine antibody titrated; set-up: Top: unit not given here; remark: listed apart in the source
[6] = target: T2, MUC17 on LS174T colorectal cancer cells; assay: flow cytometry on LS174T cells, chimeric antibody titrated
[7] = target: T2, MUC17 on LS174T colorectal cancer cells; assay: flow cytometry on LS174T cells

Binder | EC50 (人MUC17-Fc蛋白 [1]) | EC50 (人MUC17-Fc蛋白 [2]) | EC50 [3] | EC50 (人MUC17-Fc蛋白 [4]) | EC50 [5] | Top [5] | Top (人MUC17-Fc蛋白 [4]) | EC50 [6] | EC50 [7]
B1 | 140 pM | 140 pM |  |  |  |  |  |  | 
B2 |  |  | 0.024 µg/mL | 0.0376 µg/mL |  |  |  |  | 
B3 |  |  |  | 0.0372 µg/mL | 0.0472 µg/mL | 878 | 2.88 OD450 |  | 
B4 |  |  |  | 0.0317 µg/mL | 3.43 µg/mL | 382 | 2.79 OD450 |  | 
B5 |  |  |  | 0.0276 µg/mL | 0.11 µg/mL | 296 | 1.97 OD450 |  | 
B6 |  |  |  | 0.108 µg/mL | 0.87 µg/mL | 469 | 2.25 OD450 |  | 
B7 |  |  |  | 0.0813 µg/mL | 0.542 µg/mL | 500 | 2.64 OD450 |  | 
B8 |  |  |  | 0.0623 µg/mL | 0.395 µg/mL | 460 | 2.88 OD450 |  | 
B9 | 78.5 pM | 78.5 pM |  |  |  |  |  | 43.5 pM | 
B10 |  |  | 0.00656 µg/mL | 0.0202 µg/mL |  |  |  |  | 
B11 |  |  |  | 0.036 µg/mL | 0.273 µg/mL | 457 | 2.87 OD450 |  | 
B12 | 76.6 pM |  |  |  |  |  |  |  | 30 pM
B13 | 131 pM |  |  |  |  |  |  |  | 85 pM
B14 |  |  |  | 0.0556 µg/mL | 0.164 µg/mL | 445 | 2.74 OD450 |  | 

— CN116284408A (SUNSHINE GUOJIAN PHARMACEUTICAL SHANGHAI CO LTD, dated 2023)
